{
  "source": "patent US20260069689A1",
  "about": "(Regeneron, published 2026)",
  "key": {"SARS-COV-2 RBD-MMH [1]": {"target": "SARS-COV-2 RBD-MMH (SARS-CoV-2)", "assay": "SPR 37C"}, "SARS-COV-2 RBD-MMH [2]": {"target": "SARS-COV-2 RBD-MMH (SARS-CoV-2)", "assay": "SPR 37C, run with dissociation at pH 5.0"}, "[3]": {"target": "T1, human FcγR3a 176Val allotype receptor (human, UniProt P08637 17-254)", "assay": "cell-based or functional assay"}, "SARS-COV-2 RBD-MMH [4]": {"target": "SARS-COV-2 RBD-MMH (SARS-CoV-2)", "assay": "SPR 37C, run with dissociation at pH 7.4"}, "[5]": {"target": "T1, human FcγR3a 176Val allotype receptor", "assay": "cell-based or functional assay", "remark": "listed apart in the source"}},
  "note": "Read-outs that look alike come from different tables or passages of the source.",
  "data": [
    {"binder": "mAb14257 (antibody) heavy: not shown light: QSVLTQPPSVSGAPGQRVTISCTGTSSNIGADFDVHWYQQFPGTAPKLLIYGHTNRPSGIPDRFSGSKSGTSASLAITGLQAEDEADYYCQSYDSSLSGSVVFGGGTKLTVLGQPKAAPSVTLFPPSSEELQANKATLVCLISDFYPGAVTVAWKADSSPVKAGVETTTPSKQSNNKYAASSYLSLTPEQWKSHRSYSCQVTHEGSTVEKTVAPTECS", "values": [
      {"measurement": "t½ Ratio of pH 7.4 to pH 5.0", "setting": "SARS-COV-2 RBD-MMH [1]", "result": 2.1},
      {"measurement": "RBD.mmh Bound at pH 7.4 (RU)", "setting": "SARS-COV-2 RBD-MMH [2]", "result": 45.2, "unit": "RU"},
      {"measurement": "koff", "setting": "SARS-COV-2 RBD-MMH [2]", "result": 0.0172, "unit": "s⁻¹"},
      {"measurement": "t½", "setting": "SARS-COV-2 RBD-MMH [2]", "result": 42, "unit": "s"},
      {"measurement": "EC50 (M), Jurkat/CD20/spike", "setting": "[3]", "result": "2.39e-10", "unit": "M"},
      {"measurement": "Fold induction, Jurkat CD20", "setting": "[3]", "result": 1, "unit": "fold"},
      {"measurement": "Fold induction, Jurkat/CD20/spike", "setting": "[3]", "result": 8.8, "unit": "fold"},
      {"measurement": "RBD.mmh Bound at pH 7.4 (RU)", "setting": "SARS-COV-2 RBD-MMH [4]", "result": 82.3, "unit": "RU"},
      {"measurement": "koff", "setting": "SARS-COV-2 RBD-MMH [4]", "result": 0.00778, "unit": "s⁻¹"},
      {"measurement": "EC50 (M), Jurkat/CD20/spike", "setting": "[5]", "result": "2.63e-10", "unit": "M"},
      {"measurement": "Fold induction, Jurkat CD20", "setting": "[5]", "result": 1.2, "unit": "fold"},
      {"measurement": "Fold induction, Jurkat/CD20/spike", "setting": "[5]", "result": 2.2, "unit": "fold"}
    ]}
  ]
}
